Measured values as given in PMC10713829 (Nature Communications, 2023).
Peptide text beside a SMILES is read from it.

What was measured:
HLA-A*01:01/hβ2m [1] = biological target: T1, HLA-A*01:01/hβ2m (Homo sapiens, UniProt P04439, A114D/A174V/A182V/D101N/D185E/E176A/E190D/L180R/Q94H/R68K/S129P/T187R/V100A/V91M/W191G); test: Hydrogen-deuterium exchange mass spectrometry (HDX-MS) of empty and peptide-loaded complexes; conditions: for Average % deuterium uptake: 600s
T1 construct: BirA substrate peptide (biotinylation tag, […]), seen only in the HDX-MS peptide map (C); made in house

HLA-A*01:01/hβ2m [2] = biological target: T2, HLA-A*01:01/hβ2m (Homo sapiens, UniProt P04439, /R68K/S129P/T187R/V100A/V91M/W191G); test: Fluorescence anisotropy competition with TAMRA-NRAS^Q61K; type: binding
T2 construct: BirA substrate peptide (biotinylation tag, […]), seen only in the HDX-MS peptide map (C); made in house
Protocol: TAMRA association with K61 was modeled to not disrupt interaction with the HLA-A*01:01 groove because K61 is solvent-exposed. […] NRAS peptides were prepared by chemical synthesis (GenScript, Piscataway, USA). […] Data was recorded on a SpectraMax iD5 plate reader with an excitation filter of λex = 531 nm and an emission filter of λem = 595 nm with an PMT gain set to high, an integration time of 1200 msec and read height 0.5 mm. Each experiment was performed in triplicate (n = 3) and is representative of at least two independent experiments. Experimental values were subtracted from background r values obtained from incubation of TAMRA-NRAS^Q61K alone. […] IC50 values were obtain by fitting to a simple single-site (one phase association) model with DynaFit (http://www.biokin.com/dynafit).

[3] = fragment ASGSHSMRY 2-10, charge 2
[4] = fragment ASGSHSMRY 2-10, charge 3
[5] = fragment ASGSHSMRYF 2-11, charge 2

“NRAS^Q61R: NRAS55-64 neoepitope peptide with Q61R mutation (ILDTAGREEY)” was tested, and the “Average % deuterium uptake” value (HLA-A*01:01/hβ2m [1]; [3]) was 83.2364%, the “Average % deuterium uptake” value (HLA-A*01:01/hβ2m [1]; [4]) was 83.3198% and the “Average % deuterium uptake” value (HLA-A*01:01/hβ2m [1]; [5]) was 78.2896%.
“NRAS^Q61H: NRAS55-64 neoepitope peptide with Q61H mutation (ILDTAGHEEY)” was tested, and the “% deuterium uptake of peptide fragments corresponding to the NRAS peptide” value (HLA-A*01:01/hβ2m [1]; HDX-MS of peptide/HLA-A*01:01/hβ2m, back-exchange corrected, pD 6.5, 25 °C, up to 600 s, biological triplicates) was “approx. 75%”, the “Average % deuterium uptake” value (HLA-A*01:01/hβ2m [1]; fragment ASGSHSMRY 2-10, charge 1) was 85.9593% and the “Average % deuterium uptake” value (HLA-A*01:01/hβ2m [1]; [3]) was 85.2218%. The “Average % deuterium uptake” value (HLA-A*01:01/hβ2m [1]; [4]) was 85.2836% and the “Average % deuterium uptake” value (HLA-A*01:01/hβ2m [1]; [5]) was 76.8148%.
For “NRAS^Q61L: NRAS55-64 neoepitope peptide with Q61L mutation (ILDTAGLEEY)”, the “deuterium uptake of the HLA-A*01:01 α2-1 helix (residues 139–155) in the peptide-loaded complex” value (HLA-A*01:01/hβ2m [1]; HDX-MS, back-exchange corrected, pD 6.5, 25 °C, comparison among peptide-loaded samples) was “significantly reduced deuterium uptake”, the “Average % deuterium uptake” value (HLA-A*01:01/hβ2m [1]; [3]) was 83.6219% and the “Average % deuterium uptake” value (HLA-A*01:01/hβ2m [1]; [4]) was 84.5527%. For the same molecule, the “Average % deuterium uptake” value (HLA-A*01:01/hβ2m [1]; [5]) was 77.0018%.
`CC[C@H](C)[C@H](N)C(=O)N[C@@H](CC(C)C)C(=O)N[C@@H](CC(=O)O)C(=O)N[C@H](C(=O)N[C@@H](C)C(=O)NCC(=O)N[C@@H](CCCCN)C(=O)N[C@@H](CCC(=O)O)C(=O)N[C@@H](CCC(=O)O)C(=O)N[C@@H](Cc1ccc(O)cc1)C(=O)O)[C@@H](C)O` [NRAS^Q61K] was tested, and the IC50 (HLA-A*01:01/hβ2m [2]) was 260 nM.
For `CC[C@H](C)[C@H](N)C(=O)N[C@@H](CC(C)C)C(=O)N[C@@H](CC(=O)O)C(=O)N[C@H](C(=O)N[C@@H](C)C(=O)NCC(=O)N[C@@H](CCC(N)=O)C(=O)N[C@@H](CCC(=O)O)C(=O)N[C@@H](CCC(=O)O)C(=O)N[C@@H](Cc1ccc(O)cc1)C(=O)O)[C@@H](C)O` [Q61] (H-ILDTAGQEEY-OH), the IC50 (HLA-A*01:01/hβ2m [2]) was 278 ± 32 nM.
